From article PMC11293393, “ChAHP2 and ChAHP control diverse retrotransposons by complementary activities” (Genes & Development, 2024)

B1: His-ADNP2 (natural protein, human, UniProt Q6IQ32 1-1131, looked up)
chain: MFQIPVENLDNIRKVRKKVKGILVDIGLDSCKELLKDLKGFDPGEKYFHNTSWGDVSLWEPSGKKVRYRTKPYCCGLCKYSTKVLTSFKNHLHRYHEDEIDQELVIPCPNCVFASQPKVVGRHFRMFHAPVRKVQNYTVNILGETKSSRSDVISFTCLKCNFSNTLYYSMKKHVLVAHFHYLINSYFGLRTEEMGEQPKTNDTVSIEKIPPPDKYYCKKCNANASSQDALMYHILTSDIHRDLENKLRSVISEHIKRTGLLKQTHIAPKPAAHLAAPANGSAPSAPAQPPCFHLALPQNSPSPAAGQPVTVAQGAPGSLTHSPPAAGQSHMTLVSSPLPVGQNSLTLQPPAPQPVFLSHGVPLHQSVNPPVLPLSQPVGPVNKSVGTSVLPINQTVRPGVLPLTQPVGPINRPVGPGVLPVSPSVTPGVLQAVSPGVLSVSRAVPSGVLPAGQMTPAGQMTPAGVIPGQTATSGVLPTGQMVQSGVLPVGQTAPSRVLPPGQTAPLRVISAGQVVPSGLLSPNQTVSSSAVVPVNQGVNSGVLQLSQPVVSGVLPVGQPVRPGVLQLNQTVGTNILPVNQPVRPGASQNTTFLTSGSILRQLIPTGKQVNGIPTYTLAPVSVTLPVPPGGLATVAPPQMPIQLLPSGAAAPMAGSMPGMPSPPVLVNAAQSVFVQASSSAADTNQVLKQAKQWKTCPVCNELFPSNVYQVHMEVAHKHSESKSGEKLEPEKLAACAPFLKWMREKTVRCLSCKCLVSEEELIHHLLMHGLGCLFCPCTFHDIKGLSEHSRNRHLGKKKLPMDYSNRGFQLDVDANGNLLFPHLDFITILPKEKLGEREVYLAILAGIHSKSLVPVYVKVRPQAEGTPGSTGKRVSTCPFCFGPFVTTEAYELHLKERHHIMPTVHTVLKSPAFKCIHCCGVYTGNMTLAAIAVHLVRCRSAPKDSSSDLQAQPGFIHNSELLLVSGEVMHDSSFSVKRKLPDGHLGAEDQRHGEEQPPILNADAAPGPEKVTSVVPFKRQRNESRTEGPIVKDEALQILALDPKKYEGRSYEEKKQFLKDYFHKKPYPSKKEIELLSSLFWVWKIDVASFFGKRRYICMKAIKNHKPSVLLGFDMSELKNVKHRLNFEYEP
notes: ADNP2, human, full length, amino acid residues 1-1131; pFast-Bac-derived vector; also called full-length human ADNP2; source: Trichoplusia ni High5 cells (baculovirus), coexpressed with Strep-HP1β; in lysate for the pull-down, Strep-Tactin eluate for SEC-MALS; not shown: His6, N-terminal, kept

Experiments:
His-CHD4 = molecular target: T1, His-CHD4 (human, UniProt Q14839 1-1912); assay: SEC-MALS; Strep-Tactin eluate, ~4-5 mg/mL, Superose 6 Increase 10/300 GL, 50 mM HEPES-OH pH 7.4, 150 mM NaCl, 0.5 mM TCEP; conditions: both partners purified
T1 construct: CHD4, human, full length, amino acid residues 1-1912; pAC8-derived vector; also called full-length human CHD4; source: Trichoplusia ni High5 cells (baculovirus), expressed separately; in lysate for the pull-down, Strep-Tactin eluate for SEC-MALS; not shown: His6, N-terminal, kept
T1 sequence (Q14839 whole entry, the tested form may be a part): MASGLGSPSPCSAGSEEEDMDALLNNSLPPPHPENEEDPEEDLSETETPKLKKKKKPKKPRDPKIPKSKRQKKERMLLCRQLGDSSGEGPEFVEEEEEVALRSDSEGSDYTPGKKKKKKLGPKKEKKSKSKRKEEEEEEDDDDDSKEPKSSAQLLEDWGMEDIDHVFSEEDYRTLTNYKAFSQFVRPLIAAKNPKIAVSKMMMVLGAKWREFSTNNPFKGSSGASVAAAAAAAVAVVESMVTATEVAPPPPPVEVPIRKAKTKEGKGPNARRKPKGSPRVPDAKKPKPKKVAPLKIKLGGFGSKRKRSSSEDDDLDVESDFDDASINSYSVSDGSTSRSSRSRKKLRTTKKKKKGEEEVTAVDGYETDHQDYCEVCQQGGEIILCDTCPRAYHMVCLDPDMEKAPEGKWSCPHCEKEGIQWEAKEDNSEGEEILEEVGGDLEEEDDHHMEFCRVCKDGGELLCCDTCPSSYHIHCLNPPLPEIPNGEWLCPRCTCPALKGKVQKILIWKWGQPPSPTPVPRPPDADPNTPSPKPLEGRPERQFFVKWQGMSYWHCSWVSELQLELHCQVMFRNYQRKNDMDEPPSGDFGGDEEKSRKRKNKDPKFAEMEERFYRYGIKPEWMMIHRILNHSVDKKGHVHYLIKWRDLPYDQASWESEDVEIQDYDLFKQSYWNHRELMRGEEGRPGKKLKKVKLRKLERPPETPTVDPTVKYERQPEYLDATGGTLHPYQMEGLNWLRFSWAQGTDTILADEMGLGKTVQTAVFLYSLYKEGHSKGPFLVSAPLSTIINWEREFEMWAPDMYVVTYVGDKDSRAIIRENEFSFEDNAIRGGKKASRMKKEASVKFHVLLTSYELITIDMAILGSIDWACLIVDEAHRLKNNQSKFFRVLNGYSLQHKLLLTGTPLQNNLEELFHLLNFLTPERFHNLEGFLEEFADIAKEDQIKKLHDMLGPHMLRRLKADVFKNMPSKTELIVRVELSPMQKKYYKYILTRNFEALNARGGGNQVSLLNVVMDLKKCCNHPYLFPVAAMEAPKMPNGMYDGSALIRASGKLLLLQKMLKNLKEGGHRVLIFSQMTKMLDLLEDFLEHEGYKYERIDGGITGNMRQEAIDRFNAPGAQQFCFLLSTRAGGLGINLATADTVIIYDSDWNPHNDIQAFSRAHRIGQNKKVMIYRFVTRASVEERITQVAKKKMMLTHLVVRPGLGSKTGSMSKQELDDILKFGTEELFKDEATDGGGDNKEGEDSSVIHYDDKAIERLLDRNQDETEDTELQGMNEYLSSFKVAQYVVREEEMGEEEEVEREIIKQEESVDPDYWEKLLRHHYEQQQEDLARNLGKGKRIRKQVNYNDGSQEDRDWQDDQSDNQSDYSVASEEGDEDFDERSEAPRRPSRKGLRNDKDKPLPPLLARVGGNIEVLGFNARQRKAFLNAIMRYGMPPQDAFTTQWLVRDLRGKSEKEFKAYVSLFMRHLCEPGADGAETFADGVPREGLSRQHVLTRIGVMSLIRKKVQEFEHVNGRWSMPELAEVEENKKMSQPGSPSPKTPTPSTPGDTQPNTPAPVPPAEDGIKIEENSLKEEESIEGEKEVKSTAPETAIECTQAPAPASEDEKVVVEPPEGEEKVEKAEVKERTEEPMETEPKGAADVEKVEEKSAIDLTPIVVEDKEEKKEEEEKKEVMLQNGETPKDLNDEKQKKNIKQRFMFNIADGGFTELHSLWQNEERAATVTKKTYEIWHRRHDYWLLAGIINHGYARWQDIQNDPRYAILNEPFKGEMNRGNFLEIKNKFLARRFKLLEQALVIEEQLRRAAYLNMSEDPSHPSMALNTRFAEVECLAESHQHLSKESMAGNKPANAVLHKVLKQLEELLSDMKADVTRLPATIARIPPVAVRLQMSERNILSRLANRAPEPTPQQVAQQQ

His-ADNP2 = molecular target: B1; assay: pull-down; High5 cell pools (His-ADNP2 + Strep-HP1β coexpressed; His-CHD4 separately) mixed and lysed; cleared lysate over Strep-Tactin sepharose, 50 mM Tris pH 7.5, 300 mM NaCl, 0.1% Triton X-100; eluted with 2.5 mM desthiobiotin; SDS-PAGE and Coomassie staining; conditions: partners not purified

Binder	binding result (His-CHD4)	binding result (His-ADNP2)
Strep-HP1β (natural protein, HP1β (CBX1), human, full length, amino acid residues 1-185; pFast-Bac-derived vector; also called full-length human HP1β; source: Trichoplusia ni High5 cells (baculovirus), coexpressed with His-ADNP2; in lysate for the pull-down, Strep-Tactin eluate for SEC-MALS; not shown: Strep tag II, N-terminal, kept) not shown	binds	binds
B1	binds	–
